Where no end group is shown, it is not given here.

Results on one substance are retold here after patent publication US20160202264A1, “A high-throughput assay to identify molecules that modulate Rb-E2F binding” (The Regents of the University of California, priority 2013, published 2016).

The test deals with T1, Rb-E2F binding (RbNP construct, E2FTMR peptide) (Homo sapiens, UniProt P06400, DEL245-267/DEL582-642).
T1 construct: lacks the internal loops in each domain (residues 53-787, Δ245-267, Δ582-642)
The test can be described thus: Fluorescence polarization titration of RbNP into E2FTMR. Conditions: RbNP titrated into 10 nM E2FTMR. From the text:
The inventors have designed and successfully implemented a high-throughput fluorescence polarization assay to screen molecules for their modulation of Rb-E2F binding affinity. In the current exemplary format, a peptide corresponding to the E2F transactivation domain (E2F2 amino acids 409-428) was synthesized with a tetramethylrhodamine dye (TMR) at its N-terminus (E2FTMR). This peptide can then be mixed with various Rb constructs, which bind the peptide and change the polarization of the TMR fluorescence. For initial experiments, the investigators have used an Rb construct RbNP, which contains the Rb N-terminal domain and pocket domain but lacks the internal loops in each domain (residues 53-787, Δ245-267, Δ582-642).
The affinity of E2FTMR for unphosphorylated Rb is approximately 7-fold tighter than its affinity for phosphorylated RbNP. In the presence of 10 μM synthetic peptide that contains the ‘L×C×E’ sequence from the E7 oncoprotein, phosphorylated Rb binds E2F with 2-fold higher affinity. This peptide, which has a similar effect in calorimetry measurements of affinity, binds near the RbN-pocket interface, and the investigators predict it inhibits interdomain docking.
On the technique in general: In fluorescence polarisation assays a small probe gives low polarisation when free and higher when bound to something large.

T1 sequence (P06400 with tags, fused parts or gaps DEL245-267/DEL582-642, one chain of several): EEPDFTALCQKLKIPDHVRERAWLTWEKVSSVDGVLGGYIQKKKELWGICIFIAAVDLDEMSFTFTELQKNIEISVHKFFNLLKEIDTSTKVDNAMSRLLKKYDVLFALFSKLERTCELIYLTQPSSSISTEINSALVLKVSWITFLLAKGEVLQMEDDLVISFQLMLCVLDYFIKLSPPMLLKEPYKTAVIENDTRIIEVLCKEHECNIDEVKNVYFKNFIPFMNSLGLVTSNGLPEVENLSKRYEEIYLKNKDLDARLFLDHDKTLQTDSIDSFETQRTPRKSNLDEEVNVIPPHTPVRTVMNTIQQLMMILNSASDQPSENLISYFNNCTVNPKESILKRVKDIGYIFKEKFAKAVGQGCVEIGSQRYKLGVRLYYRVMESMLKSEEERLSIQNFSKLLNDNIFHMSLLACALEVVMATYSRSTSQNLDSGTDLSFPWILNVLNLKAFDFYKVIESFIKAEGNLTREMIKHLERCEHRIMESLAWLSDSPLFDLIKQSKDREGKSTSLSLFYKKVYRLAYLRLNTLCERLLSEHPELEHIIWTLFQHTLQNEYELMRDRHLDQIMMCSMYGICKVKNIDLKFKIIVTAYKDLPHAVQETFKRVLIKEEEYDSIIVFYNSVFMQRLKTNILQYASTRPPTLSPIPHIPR

“E2FTMR: peptide corresponding to the E2F transactivation domain (E2F2 amino acids 409-428) with a tetramethylrhodamine dye at its N-terminus (tetramethylrhodamine-QDDYLWGLEAGEGISDLFDS; UniProt Q14209 409-428, looked up, fragment)”: the “Affinity of E2FTMR for unphosphorylated Rb relative to phosphorylated RbNP” value is “approximately 7 fold”.
